{"source": "patent US9222947B2", "about": "“Anti-sAPPβ antibody” (SHIONOGI & CO., LTD., priority 2012, dated 2015)", "biological_target": "sAPPβ (Homo sapiens, UniProt P05067)", "sequence (P05067 18-671 limits assumed)": "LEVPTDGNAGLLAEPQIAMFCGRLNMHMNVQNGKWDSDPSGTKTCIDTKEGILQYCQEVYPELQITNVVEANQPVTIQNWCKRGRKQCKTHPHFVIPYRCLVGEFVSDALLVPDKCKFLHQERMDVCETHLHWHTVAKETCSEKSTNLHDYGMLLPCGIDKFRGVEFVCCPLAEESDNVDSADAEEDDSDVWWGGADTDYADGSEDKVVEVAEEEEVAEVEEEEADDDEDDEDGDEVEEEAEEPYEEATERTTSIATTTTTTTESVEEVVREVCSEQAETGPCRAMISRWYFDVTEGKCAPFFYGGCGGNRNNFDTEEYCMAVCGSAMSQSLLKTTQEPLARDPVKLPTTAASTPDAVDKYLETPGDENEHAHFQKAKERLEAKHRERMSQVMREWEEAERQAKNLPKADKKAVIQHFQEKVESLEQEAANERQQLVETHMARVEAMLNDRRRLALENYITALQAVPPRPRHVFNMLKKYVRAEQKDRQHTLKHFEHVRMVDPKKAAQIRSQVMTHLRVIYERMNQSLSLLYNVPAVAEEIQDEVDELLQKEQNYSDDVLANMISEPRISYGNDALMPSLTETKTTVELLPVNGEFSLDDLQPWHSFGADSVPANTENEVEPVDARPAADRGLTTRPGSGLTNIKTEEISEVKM", "assay": "Binding affinity on GLM chip using ProteOn (SPR)", "conditions": "antibody immobilized, sAPPβ as analyte", "experimental": "Binding affinity of the neoepitope antibody, 4G4 was immobilized on a GLM chip (BIO-RAD) and analyzed using a ProteOn (BIO-RAD). 4 different concentrations of sAPPβ (40, 20, 10, 5 nM) were injected as the analytes. […] Binding affinity of the internal antibody, 5H10 was immobilized on a GLM chip (BIO-RAD) and analyzed using a ProteOn (BIO-RAD). […] concentrations of sAPPβ (1000, 250, 62.5, 15.6, 3.91 nM) were injected as the analytes.", "data": [{"molecule": "5H10: mouse monoclonal antibody recognizing the internal structure/C-terminal fragments of sAPPβ; VH SEQ ID NO: 14, VL SEQ ID NO: 15 (antibody, V domains shown, VH of antibody 5H10; VL of antibody 5H10) VH: QVQLQQSGTELAKPGASVKMSCKASGYTFIDYWMHWIKQSPGQGLEWIGFINPRSGSTTYNQKFRDKATLTVDTSSSTAYMQLTSLTSEDSAVYYCTRPDFDYFDYWGQGTTLTVSS VL: DVLMTQTPLSLPVSLGDHASISCRSSQSIVQSNGNTYLEWYLQKPGQSPKLLIYKVSNRFSGVPDRFSGSGSGTDFTLKISSVEAEDLGIYYCFQASHVPLTFGAGTKLELKRA", "values": [{"measurement": "Kd", "result": 620, "unit": "pM"}]}]}
